Laboratory results taken from publication PMC5207764.

Molecular target: Vibrio cholerae major pilin TcpA with a His181Ala substitution, assembled in purified TCP^H181A pili (V. cholerae)

B1: Vibrio cholerae minor pilin TcpB (natural protein)
chain: MRKYQQGVGLLEAILASAVLGMALVAAGSYYKREAELMIKSSNAFDVIELSSQIQRYASLSKINNRTNPILKDNKAKEFKDADLKWLKLENCLTAGDVPTTGNNNDLQDQFIACDADYRKGDLSYFGSQFEFSTYVHPSNPEIQRQIKQVVSYFQYRGMERAFIGDAAGYVISEAKKKGFSAQDYRIVLIEPDRVGYFESNVISYEEFIENPSARENFLLKATKDRTLALAVSLAQTGEIAMQRDGSVAFLEDTELCWDTAAGSAKSCLSVRYDTVGNKTELDLKQIDVVSAKGLSFESDGKTKTPVVSTYETFQDGGRAKTINAIECPTGLNNRFAAVVSSFSTAGQNANFSSESAKDSQGTTQKDGSKGPHALLSGISLNWTLTNKVWDVTASIGIESGILPTSGIDSGSLLRNPKSLSFIAFQWCEN
Q: B1 was tested. Which molar ratio TcpA:TcpB in purified pili (TcpA per TcpB) did it give?
A: 7000
